This note sets out measurements from the RNAGym collection of RNA variant scans (doi:10.7554/elife.80360).

B1: Hairpin Ribozyme (parent)
chain: GUCCUCUUUCACGUGCGCGUGAAAGAGAGAAGUGAACCAGAGAAACACACGUUGUGGUAUAUUACCUGGUA

The variants in this data set derive from B1. The data set can be described thus: self-cleavage, relative activity (ratio to wild type); higher = more cleavage; co-transcriptional.
Consider GCCCUCUUUCACGUGCGUGUGAAAGAGAGAAGUGAACCAGAGAAACACACGUUGUGGUAUAUUACCUGGUA [U2C C18U], for which the self-cleavage amounted to 0.162.

GCCCUCUUUCACGUGCGCGUGAAAGAGAGAAGUGAACCAGAGAAACACACGUUGUGGUAUAUUACCGGGUA [U2C U67G]: the self-cleavage is 0.0822.

Turning to GGACUCUUUCACGUGCGCGUGAAAGAGAGAAGUGAACCAGAGAAACACACGUUGUGGUAUAUUACCUGGUA [U2G C3A], the self-cleavage is 0.786.

With GCUCUCUUUCACGUGCGCGUGAAAGAGAGAAGUGAACCAGAGAAACACACGUUGUGGUAUAUUACCUGGUA [U2C C3U], the self-cleavage amounted to 0.131.

Take GCGCUCUUUCACGUGCGCGUGAAAGAGAGAAGUGAACCAGAGAAACACACGUUGUGGUAUAUUACCUGGUA [U2C C3G]: the self-cleavage is 0.214.

With GGCCUCUUUCACGUGCGCGUGAAAGAGAGAAGUGAACCAGAGAAACACACGUUGUGGUAUAUUACCUGGUC [U2G A71C], the self-cleavage was found to be 0.77.

Consider GGCCUCUUUCACGUGGGCGUGAAAGAGAGAAGUGAACCAGAGAAACACACGUUGUGGUAUAUUACCUGGUA [U2G C16G], for which the self-cleavage worked out at 0.267.

Regarding GGCCUCUUUCACGUGUGCGUGAAAGAGAGAAGUGAACCAGAGAAACACACGUUGUGGUAUAUUACCUGGUA [U2G C16U], the self-cleavage was 0.478.

As for GCCCUCUUUCACGUGCGCGUGAAAGAGAGAAGUGAACCAGAGAAACACAAGUUGUGGUAUAUUACCUGGUA [U2C C50A], the self-cleavage amounted to 0.0705.

Turning to GCCCUCUUUCACGUGCGCGUGAAAGAGAGAAGUGAACCAGAGAAACACAGGUUGUGGUAUAUUACCUGGUA [U2C C50G], the self-cleavage stood at 0.144.

Consider GCCCUCUUUCACGUGCGCGUGAAACAGAGAAGUGAACCAGAGAAACACACGUUGUGGUAUAUUACCUGGUA [U2C G25C], for which the self-cleavage is 0.118.

For GCCCUCUUUCACGUGCGCGUGAAAGAGAGAAGUGAACCAGAGAAACACACGUUGUGGUAUAUUACCUCGUA [U2C G68C], the self-cleavage came out at 0.187.

Take GCCCUCUUUCACGUGCGCGUGAAAGAGAGAAGUGAACCAGAGAAACACACGUUGUGGUAUAUUACCUAGUA [U2C G68A]: the self-cleavage is 0.0299.

On to GCCCUCUUUCACGUGCGCGUGAAAGAGAGAAGUAAACCAGAGAAACACACGUUGUGGUAUAUUACCUGGUA [U2C G34A], for which the self-cleavage was 0.217.

Consider GCCCUCUUUCACGUGCGCGUGAAAGAGAGAAGUGAACCAGAGAAACACACGUUGUGGUAUUUUACCUGGUA [U2C A61U], for which the self-cleavage was 0.0427.

Regarding GCCCUCUUUCACGUGCGCGUGAAAGAGAGAAGUGAACCAGAUAAACACACGUUGUGGUAUAUUACCUGGUA [U2C G42U], the self-cleavage worked out at 0.203.

Regarding GGCCUUUUUCACGUGCGCGUGAAAGAGAGAAGUGAACCAGAGAAACACACGUUGUGGUAUAUUACCUGGUA [U2G C6U], the self-cleavage stood at 0.303.

For GGCCUGUUUCACGUGCGCGUGAAAGAGAGAAGUGAACCAGAGAAACACACGUUGUGGUAUAUUACCUGGUA [U2G C6G], the self-cleavage was 0.155.

GGCCUAUUUCACGUGCGCGUGAAAGAGAGAAGUGAACCAGAGAAACACACGUUGUGGUAUAUUACCUGGUA [U2G C6A]: the self-cleavage is 0.196.

Turning to GCCCUCUUUCACGUGCGCGUGAAAGAGAGAAGUGAACCAGAGAAACACACGUUGUGUUAUAUUACCUGGUA [U2C G57U], the self-cleavage was determined as 0.131.

On to GGCCUCUUUCACGUGCGCGUGAAAGAGAGAAGUGAACCAGAGAAACACGCGUUGUGGUAUAUUACCUGGUA [U2G A49G], for which the self-cleavage worked out at 0.241.

With GGCCUCUUUCACGUGCGCGUGAAAGAGAGAAGUGAACCAGAGAAACACCCGUUGUGGUAUAUUACCUGGUA [U2G A49C], the self-cleavage came out at 0.0246.

GGCCUCUUUCACGUGCGCGUGAAAGAGAGAAGUGAACCAGAGACACACACGUUGUGGUAUAUUACCUGGUA [U2G A44C]: the self-cleavage came out at 0.108.

Take GGCCUCUUUCACGUGCGCGUGAAAGAGCGAAGUGAACCAGAGAAACACACGUUGUGGUAUAUUACCUGGUA [U2G A28C]: the self-cleavage stood at 0.384.

Turning to GCCCUCUUUCACGUGCGCGUGAAAGAGAGAAGUGAACCAGAGAAACACACGUUGUGGUAUAAUACCUGGUA [U2C U62A], the self-cleavage turned out to be 0.0408.

Consider GCCCUCUUUCACGUGCGCAUGAAAGAGAGAAGUGAACCAGAGAAACACACGUUGUGGUAUAUUACCUGGUA [U2C G19A], for which the self-cleavage was found to be 0.149.

Take GCCCUCUUUCACGUGCGCCUGAAAGAGAGAAGUGAACCAGAGAAACACACGUUGUGGUAUAUUACCUGGUA [U2C G19C]: the self-cleavage is 0.128.

Regarding GCCCUCUUUCACGUGCGCGUGAAAGAAAGAAGUGAACCAGAGAAACACACGUUGUGGUAUAUUACCUGGUA [U2C G27A], the self-cleavage was 0.129.

For the variant GCCCUCUUUCACGUGCGCGUGAAAGAUAGAAGUGAACCAGAGAAACACACGUUGUGGUAUAUUACCUGGUA [U2C G27U], the self-cleavage worked out at 0.0539.

Consider GCCCUCUUUCACGUGCGCGUGAAAGAGAGAAGUGAACCAGAGAAACACACGUUUUGGUAUAUUACCUGGUA [U2C G54U], for which the self-cleavage was 0.193.

For GGCCUCUUUCACGUGCGCGUGAAAGAGAGAAGUGAACCAGAGAAACCCACGUUGUGGUAUAUUACCUGGUA [U2G A47C], the self-cleavage amounted to 0.358.

Consider GGCCUCUUUCACGUGCGCGUGAAAGAGAGAAGUGAACCAGAGAAACGCACGUUGUGGUAUAUUACCUGGUA [U2G A47G], for which the self-cleavage came out at 0.0815.

In the case of GCCCUCUUUCACGUGCGCGUGAAAGAGAGAAGUGAACCAGAGAAACACACGUUGUAGUAUAUUACCUGGUA [U2C G56A], the self-cleavage turned out to be 0.177.

GCCCUCUUUCACGUGGGCGUGAAAGAGAGAAGUGAACCAGAGAAACACACGUUGUGGUAUAUUACCUGGUA [U2C C16G]: the self-cleavage stood at 0.246.

With GCCCUCUUUCACGUGCGCGUGAAAGAGAGAAGAGAACCAGAGAAACACACGUUGUGGUAUAUUACCUGGUA [U2C U33A], the self-cleavage is 0.0916.

For GCCCUCUUUCACGUGCGCGUGAAAGAGAGAAGUGAACCAGAGAAACACACGUUGUGGUAUAUUACCUGGAA [U2C U70A], the self-cleavage was 0.241.

Turning to GGCCUCUUUCACGUGCGCGUGAAAGAGAGAAGUGAACCAGAGUAACACACGUUGUGGUAUAUUACCUGGUA [U2G A43U], the self-cleavage was 0.102.

As to GGCCUCUUUCACGUGCGCGUGAAAGAGAGAAGUGAACCAGAGGAACACACGUUGUGGUAUAUUACCUGGUA [U2G A43G], the self-cleavage amounted to 0.21.
